In patent US20030235535A1 (University of California, published 2003):

What was measured:
mouse PK2 receptor [1] = target: T1, mouse PK2 receptor (mouse, UniProt Q8K458 1-381); assay: cell-based or functional assay
T1 construct: Heptahelical G-protein-coupled receptor; also called mouse PKR2

[2] = target: PKR2 stably expressed in Chinese Hamster Ovary cells (CHO-PKR2); assay: cell-based or functional assay
mouse PK2 receptor [3] = target: T1, mouse PK2 receptor; assay: radioligand binding assay with iodinated PK2 (FIG. 11)
Source text: An exemplary assay for determining binding of detectably labeled PK2, PK1 or PK2/PK1 chimera to PK2 receptor or PK1 receptor is the radioligand filter binding assay described in Li et al. Molecular Pharmacology 59:692-698 (2001)). […] A variety of other low- and high-throughput assays suitable for detecting selective binding interactions between a receptor and a ligand are known in the art. Such assays include, for example, fluorescence correlation spectroscopy (FCS) and scintillation proximity assays (SPA) reviewed in Major, J. Receptor and Signal Transduction Res. 15:595-607 (1995); and in Sterrer et al., J. Receptor and Signal Transduction Res. 17:511-520 (1997)). Binding assays can be performed in any suitable assay format including, for example, cell preparations such as whole cells or membranes that contain PK2 receptor or PK1 receptor, or substantially purified PK2 receptor polypeptide or PK1 receptor, either in solution or bound to a solid support.

T1 sequence (Q8K458 whole entry): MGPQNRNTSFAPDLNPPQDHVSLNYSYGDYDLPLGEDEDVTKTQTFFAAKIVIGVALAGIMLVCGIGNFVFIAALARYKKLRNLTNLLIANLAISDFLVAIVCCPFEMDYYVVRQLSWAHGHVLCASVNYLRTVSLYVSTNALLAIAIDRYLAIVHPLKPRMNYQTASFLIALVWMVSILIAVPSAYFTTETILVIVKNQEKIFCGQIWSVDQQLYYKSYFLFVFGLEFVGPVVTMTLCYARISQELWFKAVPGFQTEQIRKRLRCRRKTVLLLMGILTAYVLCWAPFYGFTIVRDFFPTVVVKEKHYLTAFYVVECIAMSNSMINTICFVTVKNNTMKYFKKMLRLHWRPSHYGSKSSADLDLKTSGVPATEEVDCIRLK

For “human PK2 (from UniProt Q9HC23 28-129) (ligand)”, the calcium ion mobilization (PK2 receptor activation assay), printed as kd (mouse PK2 receptor [1]) was 2.9 nM.

For “purified recombinant mouse PK2 (from UniProt Q9QXU7 27-128) (ligand)”, the EC50, calcium mobilization [2] was 7.3 nM and the fold stimulation of CLOCK:BMAL1-mediated transcription of the 2.8 kb PK2 promoter (luciferase reporter) [2] was 4 fold.

B1: ^125I-human PK2 (ligand)
chain: AVITGACDKDSQCGGGMCCAVSIWVKSIRICTPMGKLGDSCHPLTRKVPFFGRRMHHTCPCLPGLACLRTSFNRFICLAQK
modifications: radioiodinated with ^125I (paragraph 77 describes human PK2 radioiodinated at the core Tyr, citing Li et al. 2001)
notes: also called iodinated PK2
B1 showed a Kd (mouse PK2 receptor [3]) of about 1 nM.
